Where “and” joins values, the source holds several entries; their conditions need not be identical. Equal values may be shown once.
Target: protamine

B1: iridoptin (37-kDa polypeptide expressed from the subgenic istk fragment of Chilo iridescent virus, 6xHis-tagged, Pichia-expressed) (protein)
chain: MDLKDEFIQIIKKYSELSLKESENETKKYIQEVFNVSLSEVFIKEPSKQETLKQEPTQETGCIYIFKKGKNIGQKCGSGKSKFCYKHKKNDLNIKVNQERNIKKPIPKPIPTNKIETGSVINQNWFIGTSIGKGGFGEIYSAAKFNDHGNYKDDDFSFAIKIEPKSGPLFVEMHFYKRVIVEKEIEKFKLQKNIQYLGLPKYYGSGLYNDYRYIVMEKYDSNIDKLFRNGDLNSSTILQIGIQILNIVEYIHSKGYIHADIKGENILLKENDTSHIYLVDFGLCSRYSNG
  SPECIFIC ACTIVITY (CPM/µg TOTAL PROTEIN), protein kinase assay (CPM/µg total protein): 1110 and 895
  SPECIFIC ACTIVITY (CPM/µg TOTAL PROTEIN), protein kinase assay, mean (CPM/µg total protein): 1000

Reference: patent publication US20090069239
